In patent publication US20120114652A1:

T1: mouse PAI-1 (mouse) (UniProt P22777)
T1 sequence: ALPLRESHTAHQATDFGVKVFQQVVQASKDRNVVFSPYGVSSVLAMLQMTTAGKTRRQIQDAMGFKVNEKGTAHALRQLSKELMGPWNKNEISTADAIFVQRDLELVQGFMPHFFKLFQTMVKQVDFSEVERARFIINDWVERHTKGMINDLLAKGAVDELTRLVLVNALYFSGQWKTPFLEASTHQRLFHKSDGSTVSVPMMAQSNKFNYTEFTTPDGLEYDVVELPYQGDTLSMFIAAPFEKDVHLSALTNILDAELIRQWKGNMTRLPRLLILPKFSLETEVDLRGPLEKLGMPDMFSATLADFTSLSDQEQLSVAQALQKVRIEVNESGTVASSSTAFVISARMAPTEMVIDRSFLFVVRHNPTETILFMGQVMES

T2: rat PAI-1 (rat) (UniProt P20961)
T2 sequence: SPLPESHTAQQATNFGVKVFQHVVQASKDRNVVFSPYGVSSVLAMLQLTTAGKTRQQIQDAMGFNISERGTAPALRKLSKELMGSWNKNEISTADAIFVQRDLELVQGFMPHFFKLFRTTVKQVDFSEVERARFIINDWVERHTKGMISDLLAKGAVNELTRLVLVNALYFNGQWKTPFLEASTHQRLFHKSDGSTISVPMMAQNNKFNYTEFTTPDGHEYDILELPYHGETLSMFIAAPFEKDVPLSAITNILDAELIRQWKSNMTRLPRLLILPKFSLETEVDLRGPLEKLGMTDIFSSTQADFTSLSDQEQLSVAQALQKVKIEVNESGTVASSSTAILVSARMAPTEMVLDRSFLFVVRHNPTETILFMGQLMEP


Legend:
[1] = target: cynomolgus PAI-1 (cynomolgus); assay: cell-based or functional assay
[2] = target: human PAI-1, active, wild-type, non-glycosylated (E. coli-derived) (human) (UniProt P05121); assay: cell-based or functional assay
mouse PAI-1 (mouse) = target: T1, mouse PAI-1 (mouse); assay: cell-based or functional assay
rat PAI-1 (rat) = target: T2, rat PAI-1 (rat); assay: cell-based or functional assay
[3] = target: Antibody 16, IgG1, not germlined; assay: competition binding assay: Antibody 16 IgG adsorbed to the plate, biotinylated active human PAI-1 at about its KD, dilution series of the unlabelled competitor (the varied molecule), detection with streptavidin-Europium

| Binder | IC50, PAI-1:tPA functional assay [1] | IC50, HT1080 plasminogen activation assay [2] | IC50, PAI-1:tPA functional assay [2] | pIC50, HT1080 plasminogen activation assay [2] | IC50, HT1080 plasminogen activation assay (mouse PAI-1 (mouse)) | pIC50, HT1080 plasminogen activation assay (mouse PAI-1 (mouse)) | IC50, HT1080 plasminogen activation assay (rat PAI-1 (rat)) | IC50, PAI-1:tPA functional assay (rat PAI-1 (rat)) | pIC50, HT1080 plasminogen activation assay (rat PAI-1 (rat)) | IC50 (read off the curve) [3] |
| --- | --- | --- | --- | --- | --- | --- | --- | --- | --- | --- |
| PICK167_A01 scFv (scFv) scFv: QVQLQQSGAEVKKPGSSVKVSCKASGGTFSSYAISWVRQAPGQRLEWMGGIIPTFGTANYAQKFQGRVTITADESTSTAYMELSGLRSEDTAVYYCARERRQWLEGHFDYWGRGTPVTVSSGGGGSGGGGSGGGGSDIQMTQSPSFLSASIGDRVTITCRASEGIYHNLAWYQQKPGKAPKLLIYKASSLASGAPSRFSGSRSGTDFTLTISSLQPDDFATYYCQQYSNYPLTFGGGTKLEIKR | 1.02 nM | 22 nM | 3.2 nM | 7.65 | 25 nM | 7.6 | 49 nM | 2.98 nM | 7.31 |  |
| rat PAI-1 (protein) SPLPESHTAQQATNFGVKVFQHVVQASKDRNVVFSPYGVSSVLAMLQLTTAGKTRQQIQDAMGFNISERGTAPALRKLSKELMGSWNKNEISTADAIFVQRDLELVQGFMPHFFKLFRTTVKQVDFSEVERARFIINDWVERHTKGMISDLLAKGAVNELTRLVLVNALYFNGQWKTPFLEASTHQRLFHKSDGSTISVPMMAQNNKFNYTEFTTPDGHEYDILELPYHGETLSMFIAAPFEKDVPLSAITNILDAELIRQWKSNMTRLPRLLILPKFSLETEVDLRGPLEKLGMTDIFSSTQADFTSLSDQEQLSVAQALQKVKIEVNESGTVASSSTAILVSARMAPTEMVLDRSFLFVVRHNPTETILFMGQLMEP |  |  |  |  |  |  |  |  |  | 2 nM |
| mouse PAI-1 (protein) ALPLRESHTAHQATDFGVKVFQQVVQASKDRNVVFSPYGVSSVLAMLQMTTAGKTRRQIQDAMGFKVNEKGTAHALRQLSKELMGPWNKNEISTADAIFVQRDLELVQGFMPHFFKLFQTMVKQVDFSEVERARFIINDWVERHTKGMINDLLAKGAVDELTRLVLVNALYFSGQWKTPFLEASTHQRLFHKSDGSTVSVPMMAQSNKFNYTEFTTPDGLEYDVVELPYQGDTLSMFIAAPFEKDVHLSALTNILDAELIRQWKGNMTRLPRLLILPKFSLETEVDLRGPLEKLGMPDMFSATLADFTSLSDQEQLSVAQALQKVRIEVNESGTVASSSTAFVISARMAPTEMVIDRSFLFVVRHNPTETILFMGQVMES |  |  |  |  |  |  |  |  |  | 5 nM |
